B1: P01_F05 scFv-Fc fusion (scFv, V domains shown)
VH: QVQLVESGGGLVQAGGSLRLSCAASRRSSRSWAMHWVRQAPGKGLEWVAVISYDGRLKYYADSVKGRFTISRDNAEYLVYLQMNSLRAEDTAVYYCAAGPDRWAGYDAFDVWGQGTLVTVSS
VL: DIQMTQSPSSLSASVGDRVTITCRASQTINTHLNWYQQKPGKAPKLLIYGASNLQGGVPSRFSGSGSGTDFTLTISSLQPEDFATYYCQQSYSTPLTFGQGTKVEIK
notes: Tested as scFv-Fc fusion
B2: P01_C05 scFv-Fc fusion (scFv, V domains shown)
VH: QVQLVESGGGLVQAGGSLRLSCAASRRSSRSWAMHWVRQAPGKGLEWVAVISYDGRLKYYADSVKGRFTISRDNAEYLVYLQMNSLRAEDTAVYYCAAEQWGTNDGPDGGMDYWGQGTLVTVSS
VL: B1 VL with N30G, T31S, A51T, G56S, T94S
notes: Tested as scFv-Fc fusion
B3: P02_E08 scFv-Fc fusion (scFv, V domains shown)
VH: QVQLVESGGGLVQAGGSLRLSCAASRRSSRSWAMHWVRQAPGKGLEWVAVISYDGRLKYYADSVKGRFTISRDNAEYLVYLQMNSLRAEDTAVYYCAASDYDGGGLFDLWGQGTLVTVSS
VL: QSVLTQPPSASGTPGQRVTISCSGSNSNIGDNYVHWYQQLPGTAPKLLIYMNNQRPSGVPDRFSGSKSGTSASLAISGLRSEDEADYYCATWDDSLSGVVFGTGTKLTVL
notes: Tested as scFv-Fc fusion
B4: P02_B03 scFv-Fc fusion (scFv, V domains shown)
VH: QVQLVESGGGLVQAGGSLRLSCAASRRSSRSWAMHWVRQAPGKGLEWVAVISYDGRLKYYADSVKGRFTISRDNAEYLVYLQMNSLRAEDTAVYYCAADQDVGSVGNYYGNGMDVWGQGTLVTVSS
VL: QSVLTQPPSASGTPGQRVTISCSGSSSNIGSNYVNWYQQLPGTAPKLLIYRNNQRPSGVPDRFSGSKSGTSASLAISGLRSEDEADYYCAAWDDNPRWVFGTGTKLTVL
notes: Tested as scFv-Fc fusion
B5: P02_D08 scFv-Fc fusion (scFv, V domains shown)
VH: QVQLVESGGGLVQAGGSLRLSCAASRRSSRSWAMHWVRQAPGKGLEWVAVISYDGRLKYYADSVKGRFTISRDNAEYLVYLQMNSLRAEDTAVYYCAAERGDGLDGNVGLDIWGQGTLVTVSS
VL: DIQMTQSPSSLSASVGDRVTITCRASQSISKYLNWYQQKPGKAPKLLIYGASTLQSGVPSRFSGSGSGTDFTLTISSLQPEDFATYYCQQSYSSGTFGQGTKVEIK
notes: Tested as scFv-Fc fusion
B6: P02_A10 scFv-Fc fusion (scFv, V domains shown)
VH: B3 VH with S99E, D100S, Y101E, D102W, G103D, G104T, L106G, L109V
VL: B5 VL with S30G, K31S, G50S, A51S, T53N, S93T
notes: Tested as scFv-Fc fusion
B7: P08_C08 scFv-Fc fusion (scFv, V domains shown)
VH: B5 VH with R100G, G101S, D102G, G103S, L104T, N107S, V108G, G109A, L110I, I112V
VL: B5 VL with S30G, K31S, G50A, T53S, T96S
notes: Tested as scFv-Fc fusion
B8: P07_C04 scFv-Fc fusion (scFv, V domains shown)
VH: B1 VH with G99E, R102G, W103E, A104G, G105T, Y106N, D107G, A108G, F109L, V111I
VL: B5 VL with S28N, K31R, G50S, T53S, S56T, T96A
notes: Tested as scFv-Fc fusion
B9: P04_C09 scFv-Fc fusion (scFv, V domains shown)
VH: QVQLVESGGGLVQAGGSLRLSCAASRRSSRSWAMHWVRQAPGKGLEWVAVISYDGRLKYYADSVKGRFTISRDNAEYLVYLQMNSLRAEDTAVYYCAAEANESDSGGIDVWGQGTLVTVSS
VL: B5 VL with S28T, S30G, K31G, G50A, T53S, S91G, T96A
notes: Tested as scFv-Fc fusion
B10: P03_G12 scFv-Fc fusion (scFv, V domains shown)
VH: B3 VH with S99D, D100P, Y101T, D102E, G104W, G105S, L106Y, F107L, L109Y
VL: B5 VL with S28G, K31S, T53R, S91G
notes: Tested as scFv-Fc fusion
B11: P01_B02 scFv-Fc fusion (scFv, V domains shown)
VH: B1 VH with G99A, P100D, D101W, R102Y, W103S, A104G, Y106G, F109L, V111I
VL: B5 VL with S28T, S30Y, K31N, T53N, S91T, G95P
notes: Tested as scFv-Fc fusion
B12: P02_C02 scFv-Fc fusion (scFv, V domains shown)
VH: QVQLVESGGGLVQAGGSLRLSCAASRRSSRSWAMHWVRQAPGKGLEWVAVISYDGRLKYYADSVKGRFTISRDNAEYLVYLQMNSLRAEDTAVYYCAAEGGMGLDPWGQGTLVTVSS
VL: B5 VL with S28T, K31S, G50A, T53N, Q55H
notes: Tested as scFv-Fc fusion
B13: P16_E06 scFv-Fc fusion (scFv, V domains shown)
VH: B2 VH with Q100G, W101G, G102D, T103Y, N104P, D105G, G106T, P107S, M111L, Y113I
VL: B5 VL with K31N, T53S, S94A
notes: Tested as scFv-Fc fusion
B14: P03_H04 scFv-Fc fusion (scFv, V domains shown)
VH: B5 VH with E99D, R100P, G101H, L104Y, D105G, N107G, V108P, L110F, I112Y
VL: B3 VL with N26S, D31S, H35Y, M51R, N52S, T91A, S95T, G98A
notes: Tested as scFv-Fc fusion
B15: P02_D09 scFv-Fc fusion (scFv, V domains shown)
VH: QVQLVESGGGLVQAGGSLRLSCAASRRSSRSWAMHWVRQAPGKGLEWVAVISYDGRLKYYADSVKGRFTISRDNAEYLVYLQMNSLRAEDTAVYYCAAEEGDGGFFDYWGQGTLVTVSS
VL: QSVLTQPPSASGTPGQRVTISCSGSSSNIGSNYVNWYQQLPGTAPKLLIYRNNERPSGVPDRFSGSKSGTSASLAISGLRSEDEADYYCAAWDGSLSGRGVFGTGTKLTVL
notes: Tested as scFv-Fc fusion

Results on 15 molecules are retold here after patent publication US20230192839A1 (published 2023).

Where a chain is given by its changes, count along the chain named.

T1 sequence (P20138 18-259 limits assumed): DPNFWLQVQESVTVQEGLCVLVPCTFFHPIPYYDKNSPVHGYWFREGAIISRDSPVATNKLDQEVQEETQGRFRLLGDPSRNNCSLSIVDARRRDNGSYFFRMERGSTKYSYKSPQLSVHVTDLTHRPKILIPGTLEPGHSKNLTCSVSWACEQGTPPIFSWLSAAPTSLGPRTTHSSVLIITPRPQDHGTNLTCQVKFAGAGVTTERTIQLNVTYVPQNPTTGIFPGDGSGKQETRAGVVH

One experiment addresses T1, human CD33 antigen (human, UniProt P20138 18-259, limits assumed).
T1 construct: whole entry named; also called Siglec-3
Briefly: SPR (Biacore T200), 37 C, scFv-Fc, 0 uM MTX. The protocol:
(§1) All binding kinetics analysis was performed on label-free Biacore surface plasmon biosensors (Biacore T200™ from GE Life Sciences) at 37° C. in 10 mM Hepes pH 7.4, 150 mM NaCl, 0.05% Tween-20 (HBST+), with or without 10 µM MTX. The Biacore data were processed in Biacore T200 Evaluation Software, and the data were double-referenced (Myszka, 1999, J Mol Recognit 12(5):279-284) and fit globally to a simple Langmuir with mass transport model to determine the equilibrium dissociation constant, KD, from the ratio of the kinetic rate constants (KD = koff/kₒₙ). In some cases the binding of antigen was very low (or not detectable) in the presence of 10 µM MTX and as a result kinetic rate constants could not be accurately determined. In these cases, a KD (or KD limit) was estimated based on the binding response at the highest analyte concentration tested or based on the typical limit of detection for a Biacore T200.
On the technique in general: Surface plasmon resonance follows binding to a sensor surface in real time, without labels.
For orientation: Kd means the constant that tells how readily two partners part at equilibrium. For orientation: koff means the rate constant with which the complex falls apart. A higher koff goes with a short-lived complex. As a reminder, the kon is the second-order rate constant of association. A lower kon goes with slower complex formation. Regarding B1, the dissociation constant (Kd) is 143 nM, the koff came out at 0.01 s⁻¹ and the kon stood at 71000 M⁻¹ s⁻¹.

In the case of B2, the Kd amounted to 86 nM, the koff is 0.0066 s⁻¹ and the kon came out at 76000 M⁻¹ s⁻¹.

B3: the affinity, expressed as Kd, was 211 nM; the dissociation rate constant (koff) turned out to be 0.01 s⁻¹; the kon was 47000 M⁻¹ s⁻¹.

Take B4: the Kd was 170 nM, the koff is 0.023 s⁻¹ and the kon is 140000 M⁻¹ s⁻¹.

For B5, the Kd was found to be 100 nM, the koff came to 0.0061 s⁻¹ and the kon amounted to 61000 M⁻¹ s⁻¹.

For B6, the Kd is 523 nM, the koff was 0.044 s⁻¹ and the kon is 84000 M⁻¹ s⁻¹.

Turning to B7, the Kd worked out at 72 nM, the koff was found to be 0.0045 s⁻¹ and the kon is 63000 M⁻¹ s⁻¹.

The molecule B8 gave a Kd of 31 nM, a koff of 0.0029 s⁻¹ and a kon of 95000 M⁻¹ s⁻¹.

For B9, the Kd was 12 nM, the off-rate constant (koff) was found to be 0.0018 s⁻¹ and the kon came to 160000 M⁻¹ s⁻¹.

Molecule B10 showed a Kd of 132 nM, a koff of 0.0094 s⁻¹ and a kon of 71000 M⁻¹ s⁻¹.

In the case of B11, binding was put at a Kd of 19 nM, the koff turned out to be 0.0026 s⁻¹ and the kon is 140000 M⁻¹ s⁻¹.

As for B12, binding was characterised by a dissociation constant (Kd) of 213 nM, the koff came out at 0.02 s⁻¹ and the kon turned out to be 92000 M⁻¹ s⁻¹.

On to B13, for which the Kd is 92 nM, the koff came to 0.011 s⁻¹ and the kon was found to be 120000 M⁻¹ s⁻¹.

B14 had a Kd of 366 nM, a koff of 0.026 s⁻¹ and a kon of 72000 M⁻¹ s⁻¹.

B15 registered a Kd of 456 nM, a koff of 0.018 s⁻¹ and a kon of 40000 M⁻¹ s⁻¹.

The target of the next experiment is T1, human CD33 antigen. Put plainly: SPR (Biacore T200), 37 C, scFv-Fc, 10 uM MTX. The protocol: as §1
“*”: For interactions where kₒₙ and koff are reported, the KD was calculated using koff/kₒₙ.
B2: the Kd amounted to 44.7 nM, the koff amounted to 0.0045 s⁻¹ and the kon was 100000 M⁻¹ s⁻¹.

As to B5, binding was put at a Kd of 705 nM, the koff amounted to 0.062 s⁻¹ and the kon worked out at 88000 M⁻¹ s⁻¹.

Molecule B7 came in with a Kd of 547 nM, a koff of 0.051 s⁻¹ and a kon of 94000 M⁻¹ s⁻¹.

Turning to B8, the Kd turned out to be 144 nM, the koff is 0.025 s⁻¹ and the kon worked out at 170000 M⁻¹ s⁻¹.

For B9, binding was characterised by a dissociation constant (Kd) of 205 nM, the koff amounted to 0.0089 s⁻¹ and the kon amounted to 44000 M⁻¹ s⁻¹.

B11 gave a Kd of 1.6 nM, a koff of 0.0006 s⁻¹ and a kon of 390000 M⁻¹ s⁻¹.

With B12, binding was put at a Kd of 221 nM, the off-rate (koff) was found to be 0.025 s⁻¹ and the kon was 110000 M⁻¹ s⁻¹.

With B13, the Kd came out at 1170 nM, the off-rate (koff) came to 0.087 s⁻¹ and the kon worked out at 75000 M⁻¹ s⁻¹.

In a further experiment the target is T1, human CD33 antigen. Briefly: SPR (Biacore T200), 37 C; KD at 10 uM MTX / KD at 0 uM MTX. Here is the method: as §1
Take B1: the “Ratio: KD with MTX / KD without MTX” value is more than 92.5.

For the molecule B2, the “Ratio: KD with MTX / KD without MTX” value was 0.5.

Turning to B3, the “Ratio: KD with MTX / KD without MTX” value was more than 3.4.

For B4, the “Ratio: KD with MTX / KD without MTX” value is more than 2.

Regarding B5, the “Ratio: KD with MTX / KD without MTX” value turned out to be 7.1.

As for B6, the “Ratio: KD with MTX / KD without MTX” value was more than 17.3.

In the case of B7, the “Ratio: KD with MTX / KD without MTX” value is 7.6.

With B8, the “Ratio: KD with MTX / KD without MTX” value amounted to 4.7.

Consider B9, for which the “Ratio: KD with MTX / KD without MTX” value was 17.7.

For B10, the “Ratio: KD with MTX / KD without MTX” value was more than 83.

For the molecule B11, the “Ratio: KD with MTX / KD without MTX” value was found to be 0.1.

Consider B12, for which the “Ratio: KD with MTX / KD without MTX” value came to 1.

As to B13, the “Ratio: KD with MTX / KD without MTX” value stood at 12.7.

For the molecule B14, the “Ratio: KD with MTX / KD without MTX” value was more than 43.

In the case of B15, the “Ratio: KD with MTX / KD without MTX” value was more than 20.4.
